Experimental data taken from the supplement of paper PMC12764529.
± gives the half width of the 95% confidence interval.

Legend:
[1] = folding stability dG unfold from trypsin proteolysis; higher = more stable
Outline: (§1)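 Sequencing followed digestion of designed mini-proteins with trypsin and chymotrypsin, each at 11 concentrations in threefold dilutions together with a no-protease condition. The mini-proteins were under 80 residues, had no cysteine, sat in a PA-tagged cDNA display construct, and were kept only if AlphaFold2 dimer inter-PAE was above 15. From the counts, Bayesian fitting gave K50, and unfolding free energy was derived against a sequence-predicted unfolded-state K50 and a shared folded-state K50, per protease or combined.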

[2] = folding stability dG unfold (combined trypsin and chymotrypsin); higher = more stable
Outline: as §1

[3] = folding stability dG unfold from chymotrypsin proteolysis; higher = more stable
Outline: as §1

| Sequence | folding stability dG unfold [1] [kcal/mol] | folding stability dG unfold [2] [kcal/mol] | folding stability dG unfold [3] [kcal/mol] |
| --- | --- | --- | --- |
| SAGGSMVVTETLVETLTETLTFPDGTPVTVTVPVTVTVEVYLPEPPAPPPLPFSRLAEELGDPALVSAGGSA [r2_340_JUSTAS] | -0.838 ± 0.26 | -0.623 ± 0.15 | -0.661 ± 0.43 |
| SAGGMTTLTLETTDEGKPLGLEEILARLREALPGVPVEVLSADPAKGVVTIAVAPEAVPEIERAVAASAGGS [r8_235_JUSTAS] | 1.69 ± 0.038 | 1.96 ± 0.074 | 2.1 ± 0.022 |
| SAGGSAGGSAGGSKIENIKDIERNPNPDGHYMITIPNGWQIVVRMDKNGKMEIEIVPLKSAGGSAGGSAGGS [r4_177_TrROS] | 1.87 ± 0.076 | 1.82 ± 0.15 | 1.88 ± 0.039 |
| SAGGKIKKGETVKIKIEIENKNGEKKTIELEVKKEDLEKLKELIEKLKEKGFKIKKIEIKVLKKEKKSAGGS [r8_497_TrROS_Hall] | 1.02 ± 0.13 | 2.51 ± 0.2 | 2.96 ± 0.03 |
| SMEIDPGPGVIRLRFEAPLVDPEHPRLLTLRLEPVIEVSPDGTLRVREVRLVGFSPDGELLFERPFTLDLSA [r9_383_TrMRF] | 1.865 ± 0.017 | 2.16 ± 0.066 | 2.28 ± 0.06 |
| SAGGSAGGSEVKTKVTLKREDPGSASTSTVDLPKEEAEKLIKEGKEIKLPSGKKASFTKVVPESAGGSAGGS [r12_432_JUSTAS] | -0.195 ± 0.11 | -0.148 ± 0.2 | -0.18 ± 0.24 |
| SAGGSAGGSMTRTITLSKEELKKKYPNATLEEIAKDIIEKEPGVKEVTVEEFPGTVKITVTKLSAGGSAGGS [r12_590_JUSTAS] | 2 ± 0.086 | 2.57 ± 0.18 | 2.84 ± 0.058 |
| SAGIYIPMDMTIDELVDILQKFGIRSVTTERMPEPGMYKATLKFPDLTIEIWYHPNWMHIEIVPPGEPISAG [r5_899_TrROS] | 2.77 ± 0.12 | 3.85 ± 0.23 | 4.18 ± 0.07 |
| SAGGSAGGSAGGMVTVETAPAPEGTERVIRVTFLEVNPEDGTIVRPATLTFVVPPGDPLSAGGSAGGSAGGS [r10_86_TrMRF] | 0.397 ± 0.066 | 0.686 ± 0.062 | 0.876 ± 0.083 |
| SAGMLSSETVPFPDSEITIEYDPETGTVKITTTTTTSSPSLDYRTGKPGSVSSSTTTSFEVEAEPGAELSAG [r5_195_JUSTAS] | 0.0129 ± 0.076 | 0.254 ± 0.18 | 0.323 ± 0.17 |
| SAGGMKKITITIPLEELKNLTPEERKEKLKELAEEIAKKLGLPPGAKIKKIEVEEVDGKLYVKIEIESAGGS [r16_368_TrROS_Hall] | 3.82 ± 0.18 | 3.92 ± 0.1 | 3.93 ± 0.066 |
| SAGGSAGGSANYMIKITIEYTPPNGKKEEVEVTVPGMPIDQLLNNLPPEYPVEIKDIEIYPGSAGGSAGGSA [r18_32_TrROS] | 0.251 ± 0.024 | 0.326 ± 0.11 | 0.154 ± 0.12 |
| SAGGNFVVPFKDPEQVKEIREAAEKGEEIEITPPDGKKFTFKVESVEVDPESGRVVIKLPSGKEFPLSAGGS [r16_254_TrMRF] | 0.275 ± 0.057 | 0.617 ± 0.16 | 0.62 ± 0.24 |
| SAGGKKKKKKKKKKKKKVKVRVRIVVENKNGEKKEIEIELKGLTLEELKKLAKELEKKGFKVKKIEIESAGG [r13_227_TrROS_Hall] | 3.28 ± 0.3 | 3.34 ± 0.39 | 3.53 ± 0.16 |
| SAGGSAGGSYWFSITFKINFWVIDGNRIHPVPIEITILIKIPPIPPDEMKPEPTPDGEPKYDFSAGGSAGGS [r12_1031_TrROS] | 2.73 ± 0.15 | 4.29 ± 0.23 | 4.64 ± 0.2 |
| SAGGSGMKLEKEIEVEVDPSGVGAEAVKEAVRAELEKEGYKVKVEIEVSEEEEKLYVKLHVEIYELSAGGSA [r2_172_JUSTAS] | 0.999 ± 0.064 | 1.57 ± 0.19 | 2.01 ± 0.14 |
| SAGGSAGGSAGMYVYKITYPTPSGGASEKLYPSSVPLEEVLKEAEERGAVEIEILPESELSAGGSAGGSAGG [r11_490_JUSTAS] | 0.103 ± 0.1 | 0.115 ± 0.23 | 0.151 ± 0.19 |
| SAMKIKPGEKVKIKIEVKNKKTKKKKTIEIEVPVDEETGEVFTEDELKKLLEKLGIEVEEVKIVEIEKESAG [r14_93_TrROS_Hall] | 0.886 ± 0.047 | 0.76 ± 0.21 | 0.601 ± 0.15 |
| SVPYGVTDVTFEPEKNTATVTAPRPDPSAPVAVGDKKGESVSVTSEVDTAAGTLTVTVPTTAPGNVTVDVPS [r1_138_JUSTAS] | 0.57 ± 0.041 | 0.133 ± 0.12 | -0.934 ± 0.54 |
| SAGGVPLLSAELLTTDETGNRTYRLVYYDPSTGKVYEVVVSQPFPTGDFNPFLFTASSLEEALELVTSSAGG [r13_26_TrMRF] | 2.61 ± 0.057 | 2.7 ± 0.038 | 2.81 ± 0.038 |
| SMVITLPVEDEEKLKELLDELKEQLEKAEEEGLETVTITITLEDGETLEITIDKNMTVEELLEQLEKALESA [r9_127_TrROS_Hall] | 3.22 ± 0.33 | 2.61 ± 0.29 | 1.57 ± 0.12 |

| Sequence | folding stability dG unfold [1] [kcal/mol] | folding stability dG unfold [2] [kcal/mol] | folding stability dG unfold [3] [kcal/mol] |
| --- | --- | --- | --- |
| SAGGSAGGSAVETLVTYEVPEDLPPDSLSPEAVIARFAPLGVPTEVVEIDPATGTVTVRTLVPSAGGSAGGS [r12_733_JUSTAS] | -0.377 ± 0.13 | 0.664 ± 0.047 | 1 ± 0.037 |
| SAGGSAGGSGSMSIPVGSPEALREYLRERLPPEADLSEEELEALVEELLAKASIDSDGRLHLASAGGSAGGS [r12_983_JUSTAS] | 1.65 ± 0.039 | 2.05 ± 0.053 | 2.207 ± 0.012 |
| SMNITVTYDPETDTVTIEIDDEEIDPETLRELLDAIPPNVKRVIIHVDHPETARTVEELAKETGLPVEIASA [r9_919_TrMRF] | 3.96 ± 0.077 | 3.97 ± 0.12 | 3.2 ± 0.13 |
| SAGEVKIEVEGLPDKTVIRITIPYTAPGVGPSALLAVLKELGLPPETKLLKVEFYEEPKTVEALVVQGSAGG [r19_186_TrMRF] | 1.13 ± 0.088 | 1.63 ± 0.11 | 1.72 ± 0.16 |
| SAAKIYILPGNNVILVRPPLPNGPFGELVIPTKPSELENPEFLKEIVDEIRKAGIPFEATILPPGVPPESAG [r14_60_TrMRF] | 0.426 ± 0.089 | 0.868 ± 0.24 | 1.34 ± 0.11 |
| SAGGSMTITITNEDGSTYEITVEEENGKLRITITVDGKTVEIEFDKETGKITIRYNGKTFTLTIKPSAGGSA [r2_194_TrROS_Hall] | 3.85 ± 0.19 | 5 ± 0.42 | 5.33 ± 0.13 |
| SAGGSAGGSKKIKIKVKVKNPKTKKYYEIEIEISEEELKEGKLTKEQIKKELEKLGYEVEIVPSAGGSAGGS [r20_221_TrROS_Hall] | 3.26 ± 0.15 | 2.9 ± 0.095 | 2.6 ± 0.07 |
| SAGGSAPPTYTFMIPIKEIYVPDPDNGKPKPIPVEEFADFLMPKFGIDVEILDVHPDWIQITVTPDSAGGSA [r15_55_TrROS] | 1.81 ± 0.11 | 1.73 ± 0.19 | 1.49 ± 0.091 |
| SAGNMFMVRITFPMPRYEQKRDPDNGKPKMEPKPHPREITIMVPPDSPQARDLANKLAPPGWKVDVFPMSAG [r5_468_TrROS] | 0.0695 ± 0.58 | 1.09 ± 0.19 | 1.43 ± 0.22 |
| SAGGSAGGSKEEIRKRIAERLRELIPDAKITSIEFDEKTKKITITVDSPEVREALEKLPGIKPSAGGSAGGS [r12_623_TrROS_Hall] | 1.49 ± 0.037 | 1.53 ± 0.11 | 1.63 ± 0.088 |
| SMTLEEAKEIAEKNPDIPVALIFPGKKLIYIYHPKSGKWEVKPVTSIEEAIEALEKEDIDAIFIVPAELDSA [r9_775_TrMRF] | 4.54 ± 0.44 | 4.06 ± 0.16 | 3.93 ± 0.087 |
| SAGGSAGGSASYIPVTYSFFFPDKPYVERVEAEYELGPDGTPRILSAKVEVFPVDFSPDELSAGGSAGGSAG [r3_138_TrMRF] | 0.823 ± 0.039 | 0.663 ± 0.068 | 0.279 ± 0.16 |
| SAPKIEILEVDPNRVLIKIDATPEEIEKIVEEIKKKFPGVKVETEKLEGEKKYLIKVIPVPEVPEELKKSAG [r14_600_TrMRF] | 0.0352 ± 0.067 | 1.1 ± 0.14 | 1.44 ± 0.016 |
| SAGGSAGGSAGKKPPVYRLVVENEDGEKYEFEFKSLEDLKAALESEEVRKKIKKVKIEKVSAGGSAGGSAGG [r11_1047_TrROS_Hall] | 2.11 ± 0.09 | 2.6 ± 0.15 | 3.02 ± 0.11 |
| SLSPALEGPEALAALAAADPVPPLPVLTVKNSTGDPEKALEEVLKEHPELKPELIVEVEVGEGTLTITVLSA [r9_723_JUSTAS] | 0.442 ± 0.13 | 0.48 ± 0.19 | 0.573 ± 0.095 |
| SAGFKIKIEPIEVLPNGTVKYKAIIETEKEKYEVEAFYNPKTGLIYIYSPKTGSIMKINPKTGKIILIPSAG [r14_260_TrMRF] | 3.44 ± 0.15 | 4.03 ± 0.2 | 4.18 ± 0.11 |
| SAAFKGKNGKTIKITAKVKPNELTPEQVKELALAAVKNIFPENEKVEVKVKVEKLPNGEVLVYVEVKAESAG [r14_389_TrMRF] | 1.22 ± 0.038 | 0.905 ± 0.085 | 0.342 ± 0.17 |
| SAGGSAGGSAPKILIVEDEKTGKLYAFVYDKDTKELYVAEFTYDKKTKKLTVKIKKVSLEDLSAGGSAGGSA [r18_505_TrROS_Hall] | 2.88 ± 0.09 | 4.19 ± 0.26 | 4.67 ± 0.18 |
| SAGGSAKKKKKKKKKKKKKKEKKEVVIVIKAKSKEEAEKAVKKLLEELQKKYNIPLPKNVKVIILPSAGGSA [r15_496_TrROS_Hall] | 3.33 ± 0.11 | 3.65 ± 0.37 | 4.34 ± 0.24 |
| SAGGLDAVLAELAKKPPGVTVELPVELPDGSRVVLTATWPAETSSPVITVKYYDPNRPEAVEEETFTVTSAG [r5_35_JUSTAS] | 1.34 ± 0.08 | 1.46 ± 0.12 | 1.47 ± 0.049 |
| SAGGSAGGVKEALEELLKKLKPGEKKTITLEIEVDGKLVKIEIEVLPDGEIKITKIEEIPKEDLSAGGSAGG [r6_87_TrROS_Hall] | 2.97 ± 0.12 | 2.47 ± 0.16 | 1.95 ± 0.096 |
